Data as given in the supplement of paper PMC10126150.
± gives the standard deviation of the averaged measurements.

Tested on: ATP
Assay: switch fluorescence ratio, 500 uM ATP over buffer (Cy3 cluster intensity, sum of 5 cycles each) (fold (ratio)); higher = stronger signal-on switching upon ATP binding; sequences stand for … in TCGTCGGCAGCGTCAGATGTGTATAAGAGACAGTTTTTTTTTTTTTTTTTTTTTTTTT…TC
Settings: aptamer strand: ATP DNA aptamer (quencher-CACCTGGGGGAGTATTGCGGAGGAAGG + anchor), 100 nM annealed; ATP concentration: 500 uM
Procedure, shortened: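 Between each of five buffer/ATP cycles, the flow-cell was stripped with NaOH and re-annealed. Each cycle imaged Cy3-labelled switching-strand clusters, annealed to 100 nM quencher-labelled ATP aptamer on a modified Illumina MiSeq flow-cell, first in selection buffer and then after 15 min with 500 uM ATP at 22 °C. The fluorescence ratio is summed target-cycle over summed buffer-cycle Cy3 intensity per cluster, averaged per switch-domain sequence, with clusters outside 100-1000 RFU excluded.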
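Note: ATP exposure 15 min at 22 °C before imaging.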

Sequence	switch fluorescence ratio
TACTACGTAA	2.27 ± 0.4
GGTGTGGGAT	1.01 ± 0.057
ATAGGGTGGG	1 ± 0.022
CCGGACAGTG	1.09 ± 0.099
CGTTCCGGGG	1.03 ± 0.036
TCTGATGGTG	1.06 ± 0.039
TTACAGGGTA	0.981 ± 0.025
ATCGACATTA	1.01 ± 0.017
TAAGGTGTTG	1.04 ± 0.024
CGGTTGTGAA	0.963 ± 0.018
GGGGCATTTG	0.9834 ± 0.0011
TATTTTTACA	1.012 ± 0.0086
TAATGAGTTT	1.006 ± 0.0016
ACTAATGTGG	0.9959 ± 0.0068
TATAAAAGTG	0.958 ± 0.053
GGTGGTTGTA	0.919 ± 0.043
ACGGGGGGGA	1.03 ± 0.032
GGTTACATTG	0.993 ± 0.019
GGCCGCGCTG	1.04 ± 0.016
CGTCACTAGC	1.04 ± 0.022
AGGACTCGGG	1.04 ± 0.068
CGGAAGAATT	0.99422 ± 0.00026
AGATCGTTTT	0.999 ± 0.012

Sequence	switch fluorescence ratio
TTACATGCTA	1 ± 0.032
GAGTTGTTAT	0.973 ± 0.037
CTGTTTAGTC	1.01 ± 0.015
GGTTTGGTAA	1.014 ± 0.0099
TGAGTAATTT	1.01 ± 0.037
TTTTAGGGCT	0.989 ± 0.03
TCTCTGTCGG	1.05 ± 0.011
GGTCTTTTTT	1.02 ± 0.05
TATGAATAGC	1.02 ± 0.05
GGGAAGGGGG	1 ± 0.034
GAATTTGCGC	1.03 ± 0.084
CTGATGGGTG	1.01 ± 0.013
CGTTCATATG	0.963 ± 0.023
AGGTTCGTTC	0.97 ± 0.039
CTCTGGGCAT	2.2 ± 1.9
TTTTATGATT	0.997 ± 0.04
GGGAAACCGG	1.06 ± 0.018
AGGGTTGAAC	1 ± 0.023
GGCCCATAGC	0.986 ± 0.018
GCTAGAGGGG	1.02 ± 0.048
AAGTGGCCGG	0.961 ± 0.074
TAATCCATCG	1.03 ± 0.049
CTGCTCGGTG	0.987 ± 0.062

Sequence	switch fluorescence ratio
CTCTTTGGAC	1.53 ± 0.89
AATGGTGGCC	1 ± 0.018
TGAAGGGGCT	0.9833 ± 0.0052
TTAAGGGGGG	1 ± 0.031
TTGTTGTTCG	1.01 ± 0.034
TTAACGGTGT	1.004 ± 0.005
GTGGATAGCT	1 ± 0.05
ACGTTGCGAG	0.994 ± 0.015
TTGGGTAAGA	1.02 ± 0.028
GGGCTAATGT	0.988 ± 0.047
GTTGGATTAA	1 ± 0.046
TTTTTCCTAT	1.012 ± 0.0071
TGCAGTGATC	1.11 ± 0.056
CTTTTTTAGA	0.9746 ± 0.0097
TTGGAAACCA	1.02 ± 0.015
ACTGGGGGCG	1.03 ± 0.053
GGGGGTAAGG	0.987 ± 0.034
GTGATTGCTG	0.9883 ± 0.0052
GTGGAAGGGG	0.988 ± 0.03
GACCCAAGGC	1.194 ± 0.01
TTGACTTTAA	1 ± 0.083
TCCGGGGTTG	0.988 ± 0.046
CGGGGGCTTT	0.99 ± 0.017

Sequence	switch fluorescence ratio
GTTACTGAGG	1.031 ± 0.0017
TGGTCGCATT	1.01 ± 0.034
GTGAAAGGGA	1.03 ± 0.017
AGTCGGTGGA	1 ± 0.011
TTTGTACCCT	1.064 ± 0.0021
GTTGGGGCTG	0.973 ± 0.14
TCCCGAGGGG	1.083 ± 0.01
TTAAGAGTCT	1.02 ± 0.049
ATCTGTCAAG	0.9954 ± 0.0058
TTCAATTGGT	0.974 ± 0.033
TCAAGGGATC	0.991 ± 0.073
ATGAGGTTCA	0.9759 ± 0.0049
GGATATTCCA	1.01 ± 0.067
TTAAATGTTG	1.01 ± 0.059
GATATCACTG	1.02 ± 0.016
CCCGGTATAT	1.22 ± 0.12
CAGTTTTACA	1.05 ± 0.016
CAATTGGCGT	0.967 ± 0.021
GGTGCTGGAG	0.98 ± 0.011
GAAGGTTATT	0.9939 ± 0.0047
TTCTCGATCT	1.03 ± 0.037
TGGCATCTTT	1.02 ± 0.018
TACAAGGACG	1.03 ± 0.098

Sequence	switch fluorescence ratio
AGTTAGTGAC	1.02 ± 0.024
ACCTGCTAAC	1.59 ± 0.024
CATGGATAGG	1.011 ± 0.008
CGAGCTTGAG	0.99 ± 0.002
AAAAAATCGT	1.02 ± 0.057
TTTTTGGCTT	1.02 ± 0.093
AGGGCCGGTC	1.06 ± 0.04
TGTATGGGAA	0.9352 ± 0.0043
CGCTGGGTCA	1.04 ± 0.13
TAAGAGGGTA	0.974 ± 0.06
AGACATGGGT	1.02 ± 0.033
TAGTGATGCG	0.967 ± 0.025
AAGAAGCTTT	1.27 ± 0.38
TCAAGACCTT	1.19 ± 0.014
ATTGCTAGGG	1.03 ± 0.023
GTTATAATTG	0.984 ± 0.035
TGGTCAGCTT	0.994 ± 0.017
ATGTGTCTTT	0.979 ± 0.03
GTTGGGATTG	1.01 ± 0.013
TAATACGTTG	1.03 ± 0.012
TATGTAGGGC	1.02 ± 0.05
TTTTGCTCGT	1.14 ± 0.2
ATAATTTAGC	0.961 ± 0.02

Sequence	switch fluorescence ratio
GTATGAAATG	0.999 ± 0.022
TTTGTTGTCA	0.974 ± 0.016
GAAAGAGGGA	1.02 ± 0.079
TTATTGAAAA	1 ± 0.032
ATTGGTCATA	1 ± 0.028
GTTTACGCAC	1.75 ± 0.03
TCTTATAATA	0.988 ± 0.032
TCGATTCGAT	1.35 ± 0.57
AAGGAAGGCC	1.0145 ± 0.00052
TTTGGGATAG	1.01 ± 0.049
TTGCTTAGTT	1.002 ± 0.0071
AAGGGACTCG	1.04 ± 0.059
GGGCGGGCAG	0.997 ± 0.026
TGAGGGGAGT	0.9908 ± 0.0067
AAACAAGCTT	1.02 ± 0.021
GAAACAGGAT	1.02 ± 0.058
CGGCTTAGAT	0.984 ± 0.028
TTTCGCGGGT	1.05 ± 0.067
TAGGATTGTA	0.9806 ± 0.0089
TTCAGAGACT	1 ± 0.034
GTTGTCGTGT	1.01 ± 0.049
TTCGGTTACG	1.01 ± 0.011
TTTAGGGTTC	1.04 ± 0.1

Sequence	switch fluorescence ratio
TTCGGGATTG	0.997 ± 0.024
TAATGGATGT	0.976 ± 0.027
TTCGGGTGGT	1.04 ± 0.05
ATCAAAACGT	1.04 ± 0.043
GGCCGTGGGC	1 ± 0.043
TGCTGTGGGA	0.9689 ± 0.006
GGTACAGGAC	1.06 ± 0.047
GTCTTATTTA	0.976 ± 0.014
GAAGGAACGT	0.981 ± 0.043
CCTGGATGTA	1.02 ± 0.025
TAGGGTTGGA	1 ± 0.018
ATCATAAGTT	1.01 ± 0.016
ATAGAAGGGA	0.991 ± 0.044
ATCGGAGGGG	0.957 ± 0.015
TTTTCCAGCG	1.03 ± 0.013
CTCAATTATG	0.972 ± 0.043
TGGGTTTGTT	0.986 ± 0.03
TGGGAAAGTT	0.988 ± 0.025
ATGGGCTTCG	1.01 ± 0.034
